Common to all, as to assay: EMSA
On the technique in general: Mobility shift assays separate free from complexed probe on a gel.

Data set [1] addresses T1, hPNPase Q387R (Homo sapiens, UniProt Q8TCS8 46-783, Q387R).
T1 sequence: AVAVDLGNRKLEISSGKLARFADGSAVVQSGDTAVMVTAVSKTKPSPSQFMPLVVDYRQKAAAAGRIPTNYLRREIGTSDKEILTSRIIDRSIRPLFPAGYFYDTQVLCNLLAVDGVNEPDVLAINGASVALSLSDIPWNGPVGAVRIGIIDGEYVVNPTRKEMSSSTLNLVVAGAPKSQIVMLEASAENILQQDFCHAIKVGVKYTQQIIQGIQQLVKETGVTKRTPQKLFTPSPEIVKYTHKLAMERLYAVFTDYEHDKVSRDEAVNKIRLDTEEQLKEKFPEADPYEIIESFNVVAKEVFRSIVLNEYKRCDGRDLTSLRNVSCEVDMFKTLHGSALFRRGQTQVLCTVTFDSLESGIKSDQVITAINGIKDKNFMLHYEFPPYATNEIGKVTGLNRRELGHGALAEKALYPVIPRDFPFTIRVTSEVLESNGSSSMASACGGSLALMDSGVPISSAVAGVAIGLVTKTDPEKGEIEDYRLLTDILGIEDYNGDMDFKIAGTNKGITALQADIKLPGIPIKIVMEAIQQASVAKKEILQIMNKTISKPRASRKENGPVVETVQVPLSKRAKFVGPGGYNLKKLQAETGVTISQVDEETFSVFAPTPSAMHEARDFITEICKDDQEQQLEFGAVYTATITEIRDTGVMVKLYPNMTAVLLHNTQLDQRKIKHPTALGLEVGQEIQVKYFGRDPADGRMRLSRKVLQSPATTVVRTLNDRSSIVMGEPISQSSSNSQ

Data set [2] deals with T2, hPNPase E475G (Homo sapiens, UniProt Q8TCS8 46-783, E475G).
T2 sequence: T1 sequence with R342Q, E430G

Another data set has as its target T3, hPNPase P140L (Homo sapiens, UniProt Q8TCS8 46-783, P140L).
T3 sequence: T1 sequence with P95L, R342Q

For data set [3], the target named is T1, hPNPase Q387R. This is another data set of the same source.
The target of data set [4] is T2, hPNPase E475G. This is another data set of the same source.

Positions count from the first letter of the chain named. Where two headings read alike, the source gives them in different places.

As to ACUGGACAAAUACUCCGACG (ssRNA) [RNA20], the binding result with hPNPase Q387R [1] and with hPNPase E475G [2] was “no binding” in each case.
Turning to ACTGGACAAATACTCCGACG (ssDNA) [DNA20], the binding result with hPNPase P140L, with hPNPase Q387R [3] and with hPNPase E475G [4] was “no binding” throughout.
